Measured values reported in the DeepSol protein solubility set.

Assay: soluble on expression in E. coli; label from the status in PepcDB or PDB records

**Q.** Which “soluble on expression in E. coli” value does the source give for “GPGSMMIDGAINPREWFNWHPKEYQPWYFDRHKFIYEQGQYAAYNHLLCHQAYLKDIEHLTRYPEPRTFVIDCRMSPAKMHRWVPHSMWLPRDEVEYALQLTNDEFQEMYGFIKPAKDDDVILISHNGLASEQAGWEWRKQYYQHVYNYRGGTNELFGEDYQDFILKDRLDPWKGPYPQKSIFVDKWSKRKVLTRTGPFDRQYEMQDFALPDLELERPRHSEDGPRQNMPYGLQ” here?
**A.** not soluble

**Q.** With “MLFTKASEYALLSLIYISQKETPQDVDSLALELDIPKSFLAKILQTLAKDGLLKSFKGAKGGFVLIKEPSQYTIKEIVNSAEKKDISVFECSGGTCPNNKEENCTLMPMLVNLQNKVDEFLDSITLEDIMKNNGKK” as the sequence, how does the “soluble on expression in E. coli” value read?
**A.** soluble

**Q.** With “MVSSQPKYDLIREVGRGSYGLVYEALVRRTGQRVAVKKIRCQAPENVELALREFWALSSIQSQHPNVIHLEECVLQRDGMVQRMLHGSSSVLYLP” as the sequence, how does the “soluble on expression in E. coli” value read?
**A.** not soluble

**Q.** Which “soluble on expression in E. coli” value does the source give for “MSSPSGSSRTFPQYQSGSGWNAMLPKRTPRTAAPARRHFKSLVIGAGYTGLAAARRLAELQPQDQVLVVDATVAGEGSAGRNSGFLINLPHNTRMSGHHSPLEVARKQIAMLQSGLDWLAQLSGQGGFDCGWDLAGKYHAAATADGEQSLRGALQQYGQWGVAYSELDRDALQAQLGTRYYRFGYHSMNNVFVQPAALIRGLADSLPENVWLTEDNPVLSIDGSGPYKVRTRGGEFTADNVILANNAFARRLGFLRSRLVTIFTYAGVTPVLSPAQQALLGERDQWGVIPANRLGTTLRRISGGRFMVRSAYSYEAEQPLERMEQLLRDSFVRRYPDLAAHDFEYVWSGSTGLTGNGASFVGAIQPGLYASVGCNGAGVIKGTIYGKLLGEQVAGHRSAMLDDLASFEKPNWLPPEPLRRIGALSTIAYQARKAGLEKLEHHHHHH” here?
**A.** soluble

**Q.** With “MAVPSGVHRCFFRGQSVSLEKLLSIFASEVCEQVVFIGENHEHSVAQQLELRILEALWLSSQRQNRQLLLSLEFLDRSQQHVLNEAMLRDEIESVVPEPYVPLVRFARTNNLAVLAANAPRSITSRVAKQGQQAVMETLSPKERAWCAPTPWPAPSNAYSEAFQAIMQQVMRPDPSSAQAQQERMQRMLQAQSLWDATMAFSIAEALERYPKAQVLHVTGFFHVANRLGTVEMLAHYRNTVNALVSIVYPEELQHSTSALDGDVVIYAP” as the sequence, how does the “soluble on expression in E. coli” value read?
**A.** not soluble

**Q.** For “MSLRHLLRSLIGKTLAFFVEREDDNLTRVREHLMDLLDARPSPVRAQNLRSARQLLHKQADVFNRAFQAALQTSMDEEMRAVLPEAPASAVANDTSADPLDGMTLSLIDVCEVERILLVDRVAQRFTAHYDASVSALTQRLGVLLGRDVAALSSNPFRPEVFVRAFLLAWENSGLDKQATEDLMLSLDPLHSIDLTPLYADLNAMLTHAGIAAQPARRVIKSEGAGSSYLPLSPASAHAHLQGGEMRSGLGDLEPERARSAWDALAPAGRSIASHARQFLQRLGLASSSGQNDSGAGEGADWTPADGHETRTYLASADPEFMGYLGDLQAGAQAESAERILPGQHPGDRNVLRQMRDRDEVRRAPELDRGTVDALAEVFDFVFADQAIPVQMKFVIGRLQIPVLKAAMIDRDFFLSADHPARRLVDTLAQASIAWAPEKGESDPLYVRIENTVQRVLTEFEDDLALFSELLAEFTEFLFETEQQAQGRIEPAVDHERVGESFEQALAHADEVIHARIAALPSELPLAPFLAPFLTTQWREVLARAWLNVQASAAPWDSAVTSMDQLIWSTQPKTRIEERRQLVALLPELVRRLNAGLDAIEWVGEPRATFTRRLIATHMMAIRMTQAASVDSMSAALEANAGKEAMNELEQRRSGQLAGSVDDFDAMAQSFTRGLWFDFLLDEHTQHRCLLSWVSPMRTRLLFTNRDGFDAFVRSEREVAALLRHGRLHVIDQQPIVSRALDRIMSEGERKQEGHHHHHH”, which “soluble on expression in E. coli” value is on record?
**A.** soluble

**Q.** For “MGSDKIHHHHHHMETRNLQRNPILLVHGITDTEAVFDQMAAYLRQMGWTVYTLNLVPNNGEAPLNVLAQQVADYVAANITPEQPFDLVGFSMGGIVSRYYVQRLGGISHVQRFVTISSPHYGTVIAYASQRPGCVQMRPNSLFLQDLNHDVQMLEELNFTSIWTPYDLMIVPTHSSKMPVGKELSIPVALHSWMLRDVRSIEAVAAALAEPINCDRRFEYIPNSSIHN”, which “soluble on expression in E. coli” value is on record?
**A.** not soluble

**Q.** For “MEKQNFVVLKNICKRFGSNTVIGNLDLEIKKGSLVTLLGPSGCGKTTVLRLVAGLEKPTSGQIFIDGEDVTERSIQQRDICMVFQSYALFPHMSLYENVAYGLKMLKLPSEEVRQRVDEALKIVDLEGMGERYVDQISGGQQQRVALARALVLKPKVLLFDEPLSNLDANLRRSMRETIRELQQRFDITSLYVTHDQAEAFAVSDTVIVMKQGDIMQIGTPQELYKAPKSMFMANFMGEANMFQGHFDGQQIHINGYAIDADLEVTRDKPNGEYQIGVRPEAITLHTQGSESQACQILKSAYMGSMYEVTVKWHDQELLLQLNSAQFNHTLTQHAYVVFNPRGLFLLPYAE”, which “soluble on expression in E. coli” value is on record?
**A.** not soluble

**Q.** Which “soluble on expression in E. coli” value does the source give for “MAHHHHHHMDEKSEINYDEGADPSYSMHMSESHSAYEEVNKTSSDSEFVDDDYSKVISENNLESDNVKYNPDLYNLGKARQYLCPKVQEYGIPGQVSPYHFPYNEEDYLSNVDTEYDENGFPIRTNIDDNDNNEDNKKLWSWTNDGKLKLLCSQPIIPVSVVQGILRRDKIILIPQVEVTDVVIPKVYNQNIKHDVPTLNIEIMKSNVNIPNVKYVDKEIIIPIITGYTHKFVPKWDIHEVPRPVVKYIGEQKIVEVEVPEIKYIDKFVEREVIVDTVEKRVPKIIEVPKYVDEVKYVWKPIEKIVYVQKLIPKFDVNLECPPPLIVPYPVQRIKQISPVMVKKNNTEIPDYNYYDLNSPEGSLPIPEEYIHHYSRKQKMNKGLLSTCCDKKIVTEEEKNVQFVSVPLSNEHESVCVDEEIKKNINMSQENINTQLNNNMDNFIYDSDIKKNKDKMNSSINGKQQLYINS” here?
**A.** not soluble

**Q.** Which “soluble on expression in E. coli” value does the source give for “MTEKALDSKQTGYCLSTDHYRIRRALPSDYDSILALWEDARHTMLASDNPQWQGAYPGETEAQEDIARGEAFLLDIAGTPLGVMAVNDQMPAEYGSLPWQTEGKAYTIHRLGVHSSLLRKGYAAAMLFSAETIAREQGGTCIRIDTYSPNTAAQSLFRRLGYRQVCSFHMKQKPLPYIAFEKSLLKQLGSG” here?
**A.** not soluble

**Q.** Which “soluble on expression in E. coli” value does the source give for “MAGISLLLDQAFHRHFADFFTLRSVDNRVLLNLASPRHQLAKQSLVLLAKCCFLFHLSVSISNFPTVYPTRSTIDRFKRIFPHSPRVNADLSSSSWQTSRRNYCDHALEEYVDKIFVDEAVNELQTIQDILRWSVSRFSAANIWYGHGTDNPWDEAVQLVLPSLYLPLDIPEDMRTARLTSSEKHRIVERVIRRVNERIPVAYLTNKAWFCGHEFYVDERVLVPRSPIGELINNKFAGLISKQPQHILDMCTGSGCIAIACAYAFPEAEVDAVDISPDALAVAEQNIEEHGLIHNVIPIRSDLFRDLPKVQYDLIVTNPPYVDAEDMSDLPNEYRHEPELGLASGTDGLKLTRRILGNAADYLADDGVLICEVGNSMVHLMEQYPDVPFTWLEFDNGGDGVFMLTKEQLIAAREHFAIYKD” here?
**A.** not soluble

**Q.** Which “soluble on expression in E. coli” value does the source give for “MNKQPGEQPVSCATSTGKSEKERQKDEPPRSRAEAGMMRGGGRLPQPRDTPMEVPNMIAAMPIQMTGFVDLAPHTILDVLAQTTSLMIVQCLEPLEIFTGIETPNRYVVHDMYCRPLLYCMERSSFFARQHQGSQRNFAMQCMDIFGAPVMNCFRSRPCCSCDDFLATEFLGQRIGMMKRECCDDNFHLVGTGSNEPLLVRSPGCACCGGTQVFPVMTYNGAKIGEIVRLYPGFMQEWYTDADTYIVHFPPDLPPILKILLISSTFLIDYTFFENRGGNQRGGYGHGGYGYY” here?
**A.** not soluble

**Q.** With “MGSDKIHHHHHHLQVEKNVVISEFIVNMEDVLYHRDNTDVNIAEKVAEQTASLAHYGVAHYVLTNATNQQDSDNLHIVQTDLFEHYPKLTLYFYRILMAFDFLQAHPEIEKAALTDAGDVKMLNYPFDAVEDGILYMGDETIFIYDTSILIGYDGPQFIKDFIWENGHLPILNLGIMVGTRETLIEYLGIMVKLITEAELSLAQGNDEAFLGTYKMAISNYVAYYYFKDRLVHGNQVSTIFHGEQMVSGAWFKHK” as the sequence, how does the “soluble on expression in E. coli” value read?
**A.** not soluble

**Q.** For “MKKVGILNSEISKIVADMGHMDTLAVVDLGFPIPQGVKKVDLVVDRGKPGLMEVIEILLRELKVERIILAKEMDEKSIQTKQELLKLIEKMNGPVEVVTVPHKEFKEMSKNVKGIIRTGADIPYSNVILVGGVIF”, which “soluble on expression in E. coli” value is on record?
**A.** soluble

**Q.** Which “soluble on expression in E. coli” value does the source give for “YTEEELRVLLAESYKSGEIRKSELKYMNNIFTFDKRMAKEIMVPRNEMVSLSLDEDSISNLQETVKQTKYTRYPVVREDKDNVIGVINMKEVLFSMLTKDFSIKKHQIEPFVQPVIHVIETIPIYKLLLKMQKERTHMAILIDEYGGTSGLVTVEDIIEEIVGEIRDEFDADEVPHIRELGKDHYLLNAKLLISDVNSLLGTDLSE” here?
**A.** soluble

**Q.** With “MAIETAILEKIKQYQTIIIHRHQRPDPDCIGSQLALRAILRASFPEKTVVAVGKHYPGFDWMGQADQEVSDDTYHQALVIVVDTANQPRVDDERWQTGAAVIKIDHHPNDDAFGDLQWVLPQASSTSEIIYDWFEANHADLTMPDDAARLLYAGIVGDTGRFMYPATSANTFAVAGKLLAYDFSMTAVNQAEDEISPEMARLSAYAYQNLEILPSGAAYLKLTDEIVESFGLAASDSTSAIVPLPGKITSVVAWAIFVESKDKTFRVRLRSKGPSINELAKRHGGGGHALASGAAAKDQAEIDQVIHELDQLVADTKGENELEHHHHHH” as the sequence, how does the “soluble on expression in E. coli” value read?
**A.** soluble

**Q.** For “MSLDREKANKNLLKILEAINGNSLVLFKSFEDLDSFYKYLKREITKTNIKNKNIHVYEQGMDGKEAKELKERFEKIGGILLATGRFAEGVDIPGEALVGVVIDSLPFPVPTPLILREQKILEERFKIRGVRDAHWRAFLMTSFDRMARTLVQMIGRLIRTENDYGVVVIQDKRFADWVGRVMREKGEGHHHHHH”, which “soluble on expression in E. coli” value is on record?
**A.** soluble

**Q.** For “MTTAARRPAPTTAGAGWDAGVGALVNPSRRRGGTLRLVSSADVDSLDPARTYYVWVWLLQRLLNRTLMAYPTDPGPAGLVPAPDLAEGPGEVSDGGRTWTYRLRRGLRYDDGTPITSDDVRHAVQRVFAQDVLPGGPTYLIPLLDDPERPYPGPYRTDEPLRSVLTPDEHTIVFRLTRPFSDFDHLMAQPCAAPVPRRSDTGADYGRDPRSSGPYRVARHEPDTLLHLERNPHWDRATDPIRPALPDRVELTIGLDVDVLDARLIAGEFDINLEGRGLQHAAQRRATADEVLRSHTDNPRTSFLHFVAMQPHIPPFDNVHVRRAVQYAADKILLQDARGGPVNGGDLTTALFPPTLPAHQDLDLYPTGPDLRGDLDAARAELAAAGLPDGFRAVIGTQRGKFRLVADAVVESLARVGIELTVKELDVATYFSLGAGHPETVREHGLGLLVTDWGADFPTEYGFLAPLVDGRQIKRNGGNWNLPELDDPEVNALIDETLHTTDPAARAELWRAVERRVMEHAVLLPLVHDKTLHFRNPWVTNVYVHPAFGLYDIQAMGLAEED”, which “soluble on expression in E. coli” value is on record?
**A.** soluble

**Q.** For “MAHHHHHHMATSLSDVNHIILVLSGKGGVGKSTVACQLALALANVHGKKVGLLDVDICGPSVPTICGVTGKDVYRGDAGWEPVSLFHEQHEADTAASATGNVKIMSIAFLLPSENDAVVWRGPKKDAMIRQFVTDVHWGALDYLIIDTPPGTSDEHLTLCEVLKPFNTAGAVIVTTPQDVATDDVKKELSLCHKLELRCLGVVENMSGFVCPHCAHCTDIFSKGGGKKLAEMYEVEFLGAIPIDPTLSLAEDKGQCFVTTATDANSPTVRKTVAAVTGVIDAILKQVEKSAQLQQRH”, which “soluble on expression in E. coli” value is on record?
**A.** soluble
